The results in this text go back to the nanobody polyreactivity screen of Harvey et al. (2022).

The data set can be described thus: yeast display, Sf9 membrane polyspecificity reagent, FACS + sequencing; frameworks hold sequencing errors. In outline:
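Galactose-induced (36–48 hours) yeast carrying a synthetic nanobody display library were exposed to 10% biotinylated, detergent-solubilized Sf9 membrane reagent at 4 °C for 1 hour. FACS followed streptavidin microbead enrichment, using low and high (top ~1%) gates for expression (anti-HA) and reagent binding (streptavidin). Colony PCR, MiSeq 2 × 250 sequencing and CDR-length filtering followed. Labels for polyreactivity reflect the gate of origin.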
“QVQLVESGGGLVQAGGSLRLSCAASGRTLAHYTMGWYRQAPGKERELVAAITFSGGRTYYAHSVKGRFTISRDNAKNTVYLQMNSLKPEDTAVYYCAAPGRCYYRGDDYWGQGTQVTVSS”: the “polyreactivity (PSR sort gate)” value is “low polyreactivity”.
The result for “QVQLVESGGGLVQAGGSLRLSCAASGRTLARNAMGWYRQAPGKERELVAGITSGGSTDYADSVKGRFTISRDNAKNTVYLQMNSLKPEDTAVYYCNRDAGPGGDYWGQGTQVTVSS” reads “low polyreactivity”.
The result for “QVQLVESGGGLVQAGGSLRLSCAASGRTLASNAMGWFRQSPGKERELVAAINRGGSTYYADSVKGRFTISRDNAMNTVYLQMNSLKPEDTAVYYCAVDRYRYPFDYWGQGTQVTVSS” reads “low polyreactivity”; that for “QVQLVESGGGLVQAGGSLRLSCAASGRTLDYNAMGLYRQAPGKERELVAAISWTGDSTYYADSVKGRFTISRDNAKNTVNLQMNSLKPEDTAVYYCAASYSRFVDWIGDPGYDYWGQGTQVTVSS”, “low polyreactivity”.
The result for “QVQLVESGGGLVQAGGSLRLSCAASGRTLFGNAMGWYRQAPAKERELVAAISRRGGSTSYADSVKGRFTISRDNAKNTVYLQMNSLKPEDTAVYYCASAQGKYTGTHYPYDYWGQGTQVTVSS” reads “low polyreactivity”; that for “QVQLVESGGGLVQAGGSLRLSCAASGRTLFGNAMGWYRQAPGKERELVAAISRRGGSTSYADSVKGRFTISRDNAKNTVYLQMNSLKPEDTAVYYCAAAQGKYTGTHYPYDYWGQGTQVTVSS”, “high polyreactivity”; that for “QVQLVESGGGLVQAGGSLRLSCAASGRTLGAYAMGWYRQAPGKERELVAAIRWSGSSTYYADSVKGRFTISRDNAKNTVYLQMNSLKPEDTAVYYCAAYWSRVLYGMNYWGQGTQVTVSS”, “high polyreactivity”.
For the sequence “QVQLVESGGGLVQAGGSLRLSCAASGRTLGGYAMGWYRQAPGKERELVASITARGGSTYYADSVKGRFTISRDNAKNTVYLQMNSLKPEDTAVYYCATYFARGYNSWGQGTQVTVSS”, the “polyreactivity (PSR sort gate)” value is recorded as “high polyreactivity”.
The entry for “QVQLVESGGGLVQAGGSLRLSCAASGRTLGGYTMGWYRQAPGKERELVAAITTGGSTNYADSVKGRFTISRDNAKNTVYLQMNSLKPEDTAVYYCATDLVFDKRYWYDYWGQGTQVTVSS” is “low polyreactivity”; for “QVQLVESGGGLVQAGGSLRLSCAASGRTLGIYAMGWYRQAPGTERELVAAITLSGSDTYYADSVKGRFTISRDNAKNTVDLQMNSLKPEDTAVYYCAAKTYGGYGKYGYWGQGTQVTVSS” it is “low polyreactivity”.
Take “QVQLVESGGGLVQAGGSLRLSCAASGRTLGPYTMGWYRQAPGKERELVAVISSRTGRTYYADSVKGRFTISRDNAKNTVYLQMNSLKPEDTAVYYCNAGGRYHAPSGDYWGQGTQVTVSS”: the “polyreactivity (PSR sort gate)” value is recorded as “low polyreactivity”.
The entry for “QVQLVESGGGLVQAGGSLRLSCAASGRTLGRYAMGWYRQAPGKERELVAAINVGGGTTHYADSVKGRFTISRDNAKNTVYLQMNSLKPEDTAVYYCAASYRDGHIRHDYWGQGTQVTVSS” is “low polyreactivity”; for “QVQLVESGGGLVQAGGSLRLSCAASGRTLIDNAKGWYRPAPGKERELVASISITNTYYADSVKGRFTISRDNAKNTVYLQMNSLKPEDTAVYYCNAEARPRGVDVEEAYFRYDYWGHGTQVTVSS” it is “low polyreactivity”.
The entry for “QVQLVESGGGLVQAGGSLRLSCAASGRTLLAYAMGWYRQAPGKEREFVAAISSRGVRTYYADSVKGRFTISRDNAKNTVYLQMNSLKPEDTAVYYCATRGTKSIKDVPGFRYGYWGQGTQVTVSS” is “high polyreactivity”; for “QVQLVESGGGLVQAGGSLRLSCAASGRTLLYYAMGWYRQAPGKERELVARISTGGGTSYADSVKGRFTISRDNAKNTVYLQMNSLKPEDTAVFYCAAKRSYRRALLTLDYWGHGTQVTVSS” it is “high polyreactivity”; for “QVQLVESGGGLVQAGGSLRLSCAASGRTLLYYAMGWYRQAPGKERELVASISRGSSTNYADSVKGRFTISRDNAKNTVYLQMNSLKPEDTAVYWGQGTQVTVSS” it is “low polyreactivity”.
